Tests used:
human CD40 on cells [1] = target: T1, human CD40 on cells (human, UniProt P25942 21-277); test: flow cytometry (FACS) on RAMOS cells
T1 construct: whole, on cells; One molecule is used for native or transfected full-length human CD40 on all the cell types tested; also called CD40 on RAMOS cells; CD40 receptor on dendritic cells
Method: (§1) The human Burkitt's lymphoma cell line RAMOS was used for binding analysis (ECACC, Sigma Aldrich, USA). The unconjugated anti-CD40 antibodies of the invention were assayed for binding to RAMOS cells.
(§2) RAMOS cells, approximately 125,000 cells, were incubated with anti-CD40 antibody, serially diluted 1/3 from 30-0.0015 μg/ml, for 30 minutes at 4° C. The cells were washed twice with FACS buffer and the secondary antibody, anti-human Ig Rabbit F(ab′)2/FITC (DAKO, Glostrup, Denmark), was subsequently added to the cells for another 30 minutes at 4° C. The cells were washed and analysed on a FACScalibur instrument, according to the manufacturer's instructions (Becton Dickinson, USA) and then the mean fluorescent intensity (“MFI”) was determined.

[2] = target: T2, CD40hfc (R&Dsystems, USA) (UniProt P25942 21-193); test: SPR (Biacore 3000), CD40hfc amine-coupled on chip, antibody as analyte, 37 C, pH 7.3
T2 construct: Bought reagent; also called immobilized CD40 receptor; target; not shown: Fc part ('hfc') of the bought fusion
T2 sequence (P25942 21-193 limits assumed): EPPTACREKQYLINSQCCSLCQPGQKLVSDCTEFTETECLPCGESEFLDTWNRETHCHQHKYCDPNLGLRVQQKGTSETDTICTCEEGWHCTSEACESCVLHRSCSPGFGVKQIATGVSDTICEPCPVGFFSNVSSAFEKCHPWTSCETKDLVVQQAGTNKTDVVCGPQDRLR
Method: (§3) The affinity measures of purified antibodies by surface plasmon resonance using the Biacore 3000 instrument was performed according to manufacturer's protocols.
(§4) The CD40hfc (R&Dsystems, USA) was immobilized to the BIAcore sensorchip, CMS, using conventional amine coupling. The anti-CD40 antibodies of the invention, (serially diluted 1/3 from 1-0.012 nM) were analysed for binding in HBS-P (GE, BR-1003-68) at a flow rate of 30 μl/min at 37° C. and pH 7.3. The association was followed for 3 minutes and the dissociation for 10 minutes. Regeneration was performed twice using 50 mM NaOH for 30 seconds. The kinetic parameters and the affinity constants were calculated using BlAevaluation 4.1 software.

human CD40 on cells [3] = target: T1, human CD40 on cells; test: flow cytometry (FACS) on RAMOS cells, anti-human Ig F(ab')2-FITC detection, MFI
Method: as §1, §2

[4] = target: T2, CD40hfc (R&Dsystems, USA); test: SPR (Biacore 3000), CD40hfc amine-coupled on chip, antibody as analyte, 37 C, acetate buffer pH 5.4
Method: as §3, §4
Alternatively, samples were incubated in Acetate buffer pH 5.4, 10 mM Acetate, 150 mM NaCl, 0.005% T20, at 37° C.

human CD40 on cells [5] = target: T1, human CD40 on cells; test: cell-based or functional assay
human CD40 on cells [6] = target: T1, human CD40 on cells; test: cell-based or functional assay; remark: listed apart in the source
human CD40 on cells [7] = target: T1, human CD40 on cells; test: cell-based or functional assay; remark: listed apart in the source
[8] = target: T2, CD40hfc (R&Dsystems, USA); test: SPR, physiological pH and 37 C
Method: as §3, §4

human CD40 on cells [9] = target: T1, human CD40 on cells; test: cell-based or functional assay; remark: listed apart in the source

T1 sequence (P25942 21-277): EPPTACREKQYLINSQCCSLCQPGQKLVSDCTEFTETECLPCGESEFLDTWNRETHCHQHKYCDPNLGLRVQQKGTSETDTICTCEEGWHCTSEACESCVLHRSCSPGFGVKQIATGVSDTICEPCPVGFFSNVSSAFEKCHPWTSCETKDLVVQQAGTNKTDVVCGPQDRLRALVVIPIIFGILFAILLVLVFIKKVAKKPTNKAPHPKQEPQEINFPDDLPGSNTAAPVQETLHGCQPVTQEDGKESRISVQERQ

Binder	fold increase in potency (binding to RAMOS cells) versus B44 (human CD40 on cells [1]) [fold]	Kd [2] [pM]	koff [2] [s⁻¹]	kon [2] [M⁻¹ s⁻¹]	EC50 (human CD40 on cells [3]) [µg/mL]	Kd [4] [pM]	koff [4] [s⁻¹]	kon [4] [M⁻¹ s⁻¹]	Activation of B cells, EC50 (proliferation of CD19+ B cells, Cell titer-Glo) (human CD40 on cells [5]) [µg/mL]	Fold change in potency versus B44 antibody (rescue of huCD40/WEHI-231 cells from apoptosis and growth arrest) (human CD40 on cells [6]) [fold]	Allo DC/T IFN-γ EC50 (human CD40 on cells [7]) [µg/mL]	Allo DC/T IFN-γ Max (human CD40 on cells [7]) [pg/mL]	fold improvement of affinity versus B44 [8] [fold]	EC50 of CD80 up-regulation on monocyte-derived dendritic cells (FACS) (human CD40 on cells [9]) [µg/mL]	EC50 of CD86 up-regulation on monocyte-derived dendritic cells (FACS) (human CD40 on cells [9]) [µg/mL]	EC50 of MHC II up-regulation on monocyte-derived dendritic cells (FACS) (human CD40 on cells [9]) [µg/mL]	Maximum Fold Increase of CD80 on dendritic cells (human CD40 on cells [9]) [fold]	Maximum Fold Increase of CD86 on dendritic cells (human CD40 on cells [9]) [fold]	Maximum Fold Increase of MHC II on dendritic cells (human CD40 on cells [9]) [fold]
Antibody clone A5 (antibody, human IgG1, lambda, V domains shown) VH: EVQLLESGGGLVQPGGSLRLSCAASGFTFSTYGMHWVRQAPGKGLEWLSYISGGSSYIFYADSVRGRFTISRDNSENALYLQMNSLRAEDTAVYYCARILRGGSGMDLWGQGTLVTVSS VL: QSVLTQPPSASGTPGQRVTISCTGSSSNIGAGYHVYWYQQLPGTAPKLLIYGSINRPSGVPDRFSGSKSGTSGSLAISGLRSEDEADYYCAAWDSSSSGLVFGGGTKLTVLG	~100	11	9.6e-05	8.5e+06	0.0062	22	0.00025	1.1e+07	0.29	19	0.08	9.5	~100						
Antibody B44 (antibody, V domains shown, Parent agonistic anti-CD40 antibody from the n-CoDeR library; Run alongside the IgG clones as 'B44 antibody' and detected with anti-human Ig on RAMOS cells; also called B44 antibody; original anti-CD40 antibody) VH: EVQLLESGGGLVQPGGSLRLSCAASGFTFSTYGMHWVRQAPGKGLEWLSYISGGSSYIFYADSVRGRFTISRDNSENALYLQMNSLRAEDTAVYYCARILRGGSGMDLWGQGTLVTVSS VL: QSVLTQPPSASGTPGQRVTISCTGSSSNIGAGYDVYWYQQLPGTAPKLLIYGNINRPSGVPDRFSGSKSGTSASLAISGLRSEDEADYYCAAWDDSLSGLVFGGGTKLTVLG		1700	0.0045	2.7e+06	0.38	930	0.0055	6e+06	0.204		0.2	8.7		0.25	0.37	0.51	584	132	811
Antibody clone F6 (antibody, human IgG1, lambda, V domains shown) VH: EVQLLESGGGLVQPGGSLRLSCAASGFTFSTYGMHWVRQAPGKGLEWLSYISGGSSYIFYADSVRGRFTISRDNSENALYLQMNSLRAEDTAVYYCARILRGGSGMDLWGQGTLVTVSS VL: QSVLTQPPSASGTPGQRVTISCTGSSSNIGAGYDVYWYQQLPGTAPKLLIYRNINRPSGVPDRFSGSKSGTSASLAISGLRSEDEADYYCAAWDGSLLGLVFGGGTKLTVLG	~100				0.0058				0.4		0.15	9	~100						
Antibody clone H11 (antibody, human IgG1, lambda, V domains shown, also called H11 ANTI-CD40 ANTIBODY) VH: EVQLLESGGGLVQPGGSLRLSCAASGFTFSTYGMHWVRQAPGKGLEWLSYISGGSSYIFYADSVRGRFTISRDNSENALYLQMNSLRAEDTAVYYCARILRGGSGMDLWGQGTLVTVSS VL: QSVLTQPPSASGTPGQRVTISCTGSSSNIGAGYNVYWYQQLPGTAPKLLIYGNINRPSGVPDRFSGSKSGTSASLAISGLRSEDEADYYCAAWDGGLLGLVFGGGTKLTVLG	~100	16	0.00013	8.5e+06	0.0044				0.46		0.03	9.5	~100	0.14	0.14	0.22	641	195	481
Antibody clone F9 (antibody, human IgG1, lambda, V domains shown) VH: EVQLLESGGGLVQPGGSLRLSCAASGFTFSTYGMHWVRQAPGKGLEWLSYISGGSSYIFYADSVRGRFTISRDNSENALYLQMNSLRAEDTAVYYCARILRGGSGMDLWGQGTLVTVSS VL: QSVLTQPPSASGTPGQRVTISCTGSSSNIGAGYGVYWYQQLPGTAPKLLIYGNINRPSGVPDRFSGSKSGTSASLAISGLRSEDEADYYCAAWDGTLTGLLFGGGTKLTVLG									0.21				~100						
Antibody clone B9 (antibody, human IgG1, lambda, V domains shown) VH: EVQLLESGGGLVQPGGSLRLSCAASGFTFSTYGMHWVRQAPGKGLEWLSYISGGSSYIFYADSVRGRFTISRDNSENALYLQMNSLRAEDTAVYYCARILRGGSGMDLWGQGTLVTVSS VL: QSVLTQPPSASGTPGQRVTISCTGSSSNIGAGYNVYWYQQLPGTAPKLLIYGNINRPSGVPDRFSGSKSGTSASLAISGLRSEDEADYYCAAWDGGLLGLVFGGGTKLTVLG	~100	14	0.00012	8.5e+06	0.0049	33	0.00032	9.7e+06	0.48	38	0.03	8.5	~100						
Antibody clone C4 (antibody, human IgG1, lambda, V domains shown, Same VL changes as A4; VH carries S63T; also called C4 ANTI-CD40 ANTIBODY) VH: EVQLLESGGGLVQPGGSLRLSCAASGFTFSTYGMHWVRQAPGKGLEWLSYISGGSSYIFYADTVRGRFTISRDNSENALYLQMNSLRAEDTAVYYCARILRGGSGMDLWGQGTLVTVSS VL: QSVLTQPPSASGTPGQRVTISCTGSTSNIGAGYKVYWYQQLPGTAPKLLIYGNINRPSGVPDRFSGSKSGTSASLAISGLRSEDEADYYCAAWDDSLSGLVFGGGTKLTVLG	~100				0.0061				0.288	52	0.12	9	~100	0.031	0.11	0.04	609	164	395

Reference: patent publication US20140348836A1 (published 2014)
